Measurements published in paper PMC11843895, “Single-Molecule Nanopore Sequencing of the CpG Island from the Promoter of O6-Methylguanine-DNA Methyltransferase Provides Insights into the Mechanism of De Novo Methylation of G/C-Rich Regions”.

Legend:
Dnmt3a-CD [1] = target: T1, Dnmt3a-CD (UniProt O88508 608-908); experiment: BLI; 100 uM AdoHcy; BLI: 20 mM HEPES-NaOH pH 7.5, 100 mM KCl, 1 mM EDTA, 0.2 mM DTT, 100 uM AdoHcy, 5% glycerol, 0.02% Tween-20, 0.5 mg/mL BSA, 25 C; inhibition: buffer A (20 mM HEPES-NaOH pH 7.5, 100 mM KCl, 1 mM EDTA, 1 mM DTT) with 25 uM AdoMet, 37 C; FP: buffer A; details: protein: recombinant, tags: N-terminal 6xHis, chain copies: 2
T1 sequence (O88508 608-908): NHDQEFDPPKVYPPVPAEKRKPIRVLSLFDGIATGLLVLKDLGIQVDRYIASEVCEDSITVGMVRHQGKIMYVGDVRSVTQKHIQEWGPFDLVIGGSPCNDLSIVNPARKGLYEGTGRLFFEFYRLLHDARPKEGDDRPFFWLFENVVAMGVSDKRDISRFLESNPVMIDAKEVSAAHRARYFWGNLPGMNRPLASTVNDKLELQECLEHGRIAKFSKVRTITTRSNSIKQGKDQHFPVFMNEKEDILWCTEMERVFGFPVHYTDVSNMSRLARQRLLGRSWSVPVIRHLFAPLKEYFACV

Dnmt3a-CD [2] = target: T1, Dnmt3a-CD; experiment: competition (inhibition of methylation); 300 nM MGMT-ds1-f substrate, 2 uM enzyme, 25 uM AdoMet; BLI: 20 mM HEPES-NaOH pH 7.5, 100 mM KCl, 1 mM EDTA, 0.2 mM DTT, 100 uM AdoHcy, 5% glycerol, 0.02% Tween-20, 0.5 mg/mL BSA, 25 C; inhibition: buffer A (20 mM HEPES-NaOH pH 7.5, 100 mM KCl, 1 mM EDTA, 1 mM DTT) with 25 uM AdoMet, 37 C; FP: buffer A; details: protein: recombinant, tags: N-terminal 6xHis, chain copies: 2

B1: MGMT-ds2-bio (dsDNA)
DNA 1: CTCCGCCCCCGCGCGCCCCGGCCC
DNA 2: GGGCCGGGGCGCGCGGGGGCGGAG
Dnmt3a-CD [1]; label: 5' biotin on strand 1 (C-rich), blunt
  Kd: 15 ± 0.5 nM

## CTGAATACTACTTCCTACCCCTTACCTGAT (ssDNA) [non-specific control (no CpG)]
Dnmt3a-CD [2]
  IC50: 2400 ± 700 nM

## GGGCCGGGGCGCGCGGGGGCGGAG (structured_DNA) [MGMT-G4-bio]
Dnmt3a-CD [1]; label: 5' biotin, G4, mixed hybrid (CD of unlabeled MGMT-G4)
  Kd: 14 ± 0.4 nM

## GTGCCGGAGCGCGCGGAGGCGGAG (ssDNA) [MGMT-G4-mut]
Dnmt3a-CD [2]; no G4 by CD
  IC50: 590 ± 90 nM

## CTCCGCCCCCGCGCGCCCCGGCCC (ssDNA) [MGMT-C-bio]
Dnmt3a-CD [1]; label: 5' biotin
  Kd: 211 ± 21 nM

B2: MGMT-ds1-bio (dsDNA)
DNA 1: GGTCCTGCAGGCGCCCTCACTT
DNA 2: AAGTGAGGGCGCCTGCAGGACC
Dnmt3a-CD [1]; label: 5' biotin on strand 1, blunt
  Kd: 65 ± 2 nM

## GGGCCGGGGCGCGCGGGGGCGGAG (structured_DNA) [MGMT-G4]
Dnmt3a-CD [2]; G4, mixed hybrid (CD)
  IC50: 610 ± 30 nM
